Reference: PMC10806181
Read-outs that look alike come from different tables or passages of the source.

Legend:
[1] = target: Stl repressor of the Staphylococcus hominis ShoCI794_SEPI pathogenicity island (Staphylococcus hominis); test: SEC; gelfiltration of Sho-Stl (Fig. S1)
[2] = target: Mycobacterium tuberculosis dUTPase, enzymatically biotinylated on an N-terminal Avi-tag (Mycobacterium tuberculosis) (UniProt P9WNS5); test: BLI
[3] = target: Stl repressor of the Staphylococcus hominis ShoCI794_SEPI pathogenicity island (Staphylococcus hominis); test: cross-linking; chemical crosslinking of Sho-Stl in solution (Fig. S1)
[4] = target: Stl repressor of the Staphylococcus hominis ShoCI794_SEPI pathogenicity island (Staphylococcus hominis); test: BLI + other: steady state dUTPase activity assay; dimer to monomers; rough estimate of KDIM from the BLI KD and the remaining activity of 50 nM human dUTPase at 200 and 300 nM Stl, assuming no competition of substrate binding
[5] = target: Stl master repressor of the Staphylococcus aureus SaPIbov1 pathogenicity island (Staphylococcus aureus (SaPIbov1)); test: BLI; dimer to monomers; KDIM estimated by probing dimerization constants until the ka values of the two BLI set-ups (Stl or human dUTPase on the sensor) were close to equal
[6] = target: human dUTPase, enzymatically biotinylated on an N-terminal Avi-tag (human); test: BLI
[7] = target: Stl master repressor of the Staphylococcus aureus SaPIbov1 pathogenicity island (Staphylococcus aureus (SaPIbov1)); test: BLI + other: steady state dUTPase activity assay; dimer to monomers; rough estimate of KDIM from the BLI KD and the remaining activity of 50 nM human dUTPase at 200 and 300 nM Stl, assuming no competition of substrate binding
[8] = target: Sa-Stl, enzymatically biotinylated on a C-terminal Avi-tag (Staphylococcus aureus (SaPIbov1)); test: BLI
[9] = target: Sho-Stl-NDY bound to the streptavidin sensor (Staphylococcus hominis); test: BLI
[10] = target: Sho-Stl, enzymatically biotinylated on a C-terminal Avi-tag (Staphylococcus hominis); test: BLI
[11] = target: Sho-Stl, enzymatically biotinylated on a C-terminal Avi-tag (Staphylococcus hominis); test: BLI; remark: listed apart in the source

Substance: Stl repressor of the Staphylococcus hominis ShoCI794_SEPI pathogenicity island (natural protein)
- stoichiometry N [1]: 2
- steady state dUTPase enzyme activity of 50 nM human dUTPase at 200 nM and 300 nM Sho-Stl (remaining activity); Sho-Stl does not inhibit the human dUTPase (% remaining activity) (human dUTPase (human)): 100
- Kd [2]: 35 nM
- koff [2]: 0.00041 s⁻¹
- kon [2]: 12000 M⁻¹ s⁻¹
- stoichiometry N [3]: 2
- Kd [4]: 0.001 nM

Substance: Stl master repressor of the Staphylococcus aureus SaPIbov1 pathogenicity island (natural protein)
- Kd [5]: 0.12 nM
- Kd [6]: 9.75 nM
- koff [6]: 0.00065 s⁻¹
- kon [6]: 67000 M⁻¹ s⁻¹
- Kd [7]: 0.001 nM

Substance: human dUTPase (enzyme)
- Kd [8]: 0.18 nM
- koff [8]: 0.00027 s⁻¹
- kon [8]: 1.5e+06 M⁻¹ s⁻¹
- Kd [9]: 7.62 nM
- koff [9]: 0.00024 s⁻¹
- kon [9]: 31000 M⁻¹ s⁻¹
- Kd [10]: 4.54 nM
- koff [10]: 0.00023 s⁻¹
- kon [10]: 52000 M⁻¹ s⁻¹
- koff [11]: 0.00025 s⁻¹

Substance: Mycobacterium tuberculosis dUTPase (from UniProt P9WNS5 1-154) (enzyme)
- Kd [10]: 0.013 nM
- koff [10]: 2.9e-07 s⁻¹
- kon [10]: 22000 M⁻¹ s⁻¹
